Assay results reported in US20130224222A1.

Target: thioredoxin (endogenous, mouse mediobasal hypothalamus extracts) (mouse) (UniProt P10639)
Test: cell-based or functional assay

Sequence of UniProt P10639 (P10639 whole entry): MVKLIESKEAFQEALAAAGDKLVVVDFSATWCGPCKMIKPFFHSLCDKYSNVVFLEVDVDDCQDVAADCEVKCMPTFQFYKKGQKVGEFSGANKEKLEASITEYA

human thioredoxin-interacting protein (hTXNIP) (from UniProt Q9H3M7 1-391)
thioredoxin activity in the MBH (insulin-reducing assay) (fold decrease): 2

thioredoxin-interacting protein (TXNIP), endogenous mouse (from UniProt Q8BG60 1-397)
thioredoxin activity in the MBH (insulin-reducing assay) after TXNIP shRNA knockdown: 50 % increase
